# Results as given in publication PMC8974011.
# T1: endogenous STAT1 of HeLa cells (human (endogenous in HeLa)), P42224
# T1 chain: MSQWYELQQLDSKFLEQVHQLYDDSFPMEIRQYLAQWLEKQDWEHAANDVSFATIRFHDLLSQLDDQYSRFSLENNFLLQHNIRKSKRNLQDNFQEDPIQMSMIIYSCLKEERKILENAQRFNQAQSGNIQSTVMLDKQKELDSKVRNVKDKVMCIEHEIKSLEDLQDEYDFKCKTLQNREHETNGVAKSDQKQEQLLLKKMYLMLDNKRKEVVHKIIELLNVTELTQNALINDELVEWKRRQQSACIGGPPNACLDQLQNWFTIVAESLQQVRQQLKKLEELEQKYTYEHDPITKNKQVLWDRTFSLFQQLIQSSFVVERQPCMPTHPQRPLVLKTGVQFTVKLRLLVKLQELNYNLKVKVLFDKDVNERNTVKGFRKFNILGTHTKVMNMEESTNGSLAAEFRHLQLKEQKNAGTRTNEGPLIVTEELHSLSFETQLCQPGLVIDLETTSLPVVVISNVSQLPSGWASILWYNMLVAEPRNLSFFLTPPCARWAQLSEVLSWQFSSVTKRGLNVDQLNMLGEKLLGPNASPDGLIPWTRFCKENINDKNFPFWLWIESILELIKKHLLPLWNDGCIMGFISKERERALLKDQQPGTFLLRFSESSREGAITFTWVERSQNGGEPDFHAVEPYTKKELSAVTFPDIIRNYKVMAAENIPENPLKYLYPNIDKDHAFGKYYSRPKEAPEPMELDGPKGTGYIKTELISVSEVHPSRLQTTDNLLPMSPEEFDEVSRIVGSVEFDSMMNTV
# Target: T1, endogenous STAT1 of HeLa cells (human …)
# Experiment: native gel or EMSA; extracts of IFNγ-stimulated HeLa cells incubated with [33P]-labelled 2xGAS duplex DNA (two tandem GAS sites); super-shift with STAT1 antibody; competition with 750-fold molar excess of unlabelled M67 DNA; 4.8% acrylamide gel at 4 °C; only DNA-bound complexes are seen
# Conditions: remark: other sources report otherwise
binder,measurement,value
"endogenous STAT1 of HeLa cells, P42224 1-750 (natural protein, here or on the partner: phospho-tyrosine 701 (P-STAT1, IFNγ-stimulated cells); phospho-tyrosine 701 (P-STAT1, IFNγ-stimulated cells)) MSQWYELQQLDSKFLEQVHQLYDDSFPMEIRQYLAQWLEKQDWEHAANDVSFATIRFHDLLSQLDDQYSRFSLENNFLLQHNIRKSKRNLQDNFQEDPIQMSMIIYSCLKEERKILENAQRFNQAQSGNIQSTVMLDKQKELDSKVRNVKDKVMCIEHEIKSLEDLQDEYDFKCKTLQNREHETNGVAKSDQKQEQLLLKKMYLMLDNKRKEVVHKIIELLNVTELTQNALINDELVEWKRRQQSACIGGPPNACLDQLQNWFTIVAESLQQVRQQLKKLEELEQKYTYEHDPITKNKQVLWDRTFSLFQQLIQSSFVVERQPCMPTHPQRPLVLKTGVQFTVKLRLLVKLQELNYNLKVKVLFDKDVNERNTVKGFRKFNILGTHTKVMNMEESTNGSLAAEFRHLQLKEQKNAGTRTNEGPLIVTEELHSLSFETQLCQPGLVIDLETTSLPVVVISNVSQLPSGWASILWYNMLVAEPRNLSFFLTPPCARWAQLSEVLSWQFSSVTKRGLNVDQLNMLGEKLLGPNASPDGLIPWTRFCKENINDKNFPFWLWIESILELIKKHLLPLWNDGCIMGFISKERERALLKDQQPGTFLLRFSESSREGAITFTWVERSQNGGEPDFHAVEPYTKKELSAVTFPDIIRNYKVMAAENIPENPLKYLYPNIDKDHAFGKYYSRPKEAPEPMELDGPKGTGYIKTELISVSEVHPSRLQTTDNLLPMSPEEFDEVSRIVGSVEFDSMMNTV",stoichiometry N,4
